Results: PMC4227968

Molecular target: T1, CzrA (Bacillus subtilis, UniProt O31844 1-107)
T1 sequence: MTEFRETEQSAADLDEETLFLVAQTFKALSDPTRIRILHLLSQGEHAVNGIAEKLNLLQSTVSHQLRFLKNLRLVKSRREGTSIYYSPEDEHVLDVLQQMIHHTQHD
Assay: fluorescence anisotropy

B1: cadA promoter operator 28 bp (dsDNA)
DNA 1: TTATATATGAGTATATGCTCATATATAT
DNA 2: ATATATATGAGCATATACTCATATATAA
Q: Does B1 bind?
A: binds
